This is an account of results in the supplement of paper PMC10567573.

This data set in a line: protein stability index of a GFP-peptide fusion (GPS, HEK-293T) (PSI 1-6); higher = more stable. The settings on record: c terminus: a fixed tail appended.

± gives the standard deviation.
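Further: 24-mer peptide tiles fused after GFP, lentivirally expressed, FACS-sorted into six equal bins by GFP/DsRed ratio, decoded by Illumina sequencing, PSI is the read-weighted mean bin number.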

In the case of LSDKSCQSFISWTGDGWEFKLADP [ETS2], the protein stability index was found to be 2.49 ± 0.22 (treatment: DMSO) and 2.59 ± 0.36 (treatment: MLN4924 1 uM, 8 h).
As for LSDNATAFSNRSKQLRRQMWWRGC [VAMP4], the protein stability index was found to be 2.54 ± 0.048 (treatment: DMSO) and 2.67 ± 0.33 (treatment: MLN4924 1 uM, 8 h).
The like results for LSDVQNPAISITENVLHFKAQGHG [HACD3] were, in that order, 4.13 ± 0.19 and 4.28 ± 0.15.
Take LSEDDKLQGAASHVPEGFDPTGPA [EHMT1]: the protein stability index by setting is: (treatment: DMSO) 5.333 ± 0.053; (treatment: MLN4924 1 uM, 8 h) 5.4 ± 0.073.
LSEYVSRMKETQKSIYYITGESKE [HSP90AB1] displayed a protein stability index (treatment: DMSO) of 3.69 ± 0.24 and a protein stability index (treatment: MLN4924 1 uM, 8 h) of 3.67 ± 0.2.
Consider LSPLSLAQYDSWPHYPEYFQQPAP [LOXL2], for which the protein stability index came to 2.62 ± 0.12 (treatment: DMSO) and 2.87 ± 0.18 (treatment: MLN4924 1 uM, 8 h).
For LSSAVWPGGETEALTRLERHLERK [CRY1], the protein stability index amounted to 4.44 ± 0.22 (treatment: DMSO) and 4.27 ± 0.061 (treatment: MLN4924 1 uM, 8 h).
Regarding LSTLLAPYQALRLWARGTWTQATG [SOAT2], the protein stability index runs as follows: (treatment: DMSO) 2.4 ± 0.55; (treatment: MLN4924 1 uM, 8 h) 2.08 ± 0.55.
For the sequence LSVSNNQEPDFIDDIEEKTPISNE [KMT2E], the protein stability index by setting is: (treatment: DMSO) 4.69 ± 0.37; (treatment: MLN4924 1 uM, 8 h) 4.75 ± 0.21.
The like results for LTPKGGVRTSYQPSSPGRFTKETT [TRIM29] were, in that order, 4.17 ± 0.16 and 4.21 ± 0.11.
Consider LTPKSTPVKTLPFSPSQFLNFWNK [MYBL2], for which the protein stability index reads like this: (treatment: DMSO) 2.24 ± 0.26; (treatment: MLN4924 1 uM, 8 h) 2.4 ± 0.18.
As to LTQDWVQENYLEYRQVPGSDPARY [MAGEA10], the protein stability index reads like this: (treatment: DMSO) 4.06 ± 0.22; (treatment: MLN4924 1 uM, 8 h) 3.88 ± 0.2.
On to LVVADDKMAAFHGAGLKRYLLTVM [ADAMTS4], for which the protein stability index is, setting by setting: (treatment: DMSO) 2.72 ± 0.63; (treatment: MLN4924 1 uM, 8 h) 2.35 ± 0.61.
The like results for LVVILLSIVAVGFHIFRTLEVNRL [PKD2L1] were, in that order, 3.44 ± 0.88 and 3.12 ± 0.23.
As to LWHLAITDRSFNIVDIKPANMEDL [PPP2R2C], the protein stability index reads like this: (treatment: DMSO) 2.36 ± 0.23; (treatment: MLN4924 1 uM, 8 h) 2.41 ± 0.28.
The matching figures for LWNGDKYAATTTPFTPLHIKVKPK [TRIM39]: 2.99 ± 0.27 and 3.28 ± 0.38.
Turning to MAFLDKRLQVKEHQHEEIQNVRNH [ATL3], the protein stability index is, setting by setting: (treatment: DMSO) 3.84 ± 0.069; (treatment: MLN4924 1 uM, 8 h) 3.98 ± 0.23.
In turn, MAPDPVAAETAAQGPTPRYFTWDE [FADS1] showed a protein stability index (treatment: DMSO) of 4.7 ± 0.17 and a protein stability index (treatment: MLN4924 1 uM, 8 h) of 4.83 ± 0.27.
In the case of MAPKTKKGCKVTLPEKPVKLASHT [FBF1], the protein stability index was 4.16 ± 0.15 (treatment: DMSO) and 4.21 ± 0.087 (treatment: MLN4924 1 uM, 8 h).
For MAPPAAPGRDRVGREDEDGWETRG [HES6], the protein stability index came to 5.2 ± 0.37 (treatment: DMSO) and 5.48 ± 0.16 (treatment: MLN4924 1 uM, 8 h).
The matching figures for MAQQQMTSSQKALMLELKSLQEEP [UBE2R2]: 4.33 ± 0.28 and 4.29 ± 0.24.
The matching figures for MATSELSCEVSEENCERREAFWAE [TCAP]: 5.07 ± 0.079 and 5.08 ± 0.32.
The like results for MAVAFLSAQRSKDPNSQVGACIVN [DCTD] were, in that order, 2.01 ± 0.16 and 2.27 ± 0.25.
MDAAPGVDLSRILNEMRDQYEKMA [KRT17]: the protein stability index amounted to 3.82 ± 0.18 (treatment: DMSO) and 3.8 ± 0.17 (treatment: MLN4924 1 uM, 8 h).
For the sequence MDGRMEAATRGGSHLQAAAQTPPR [SCNN1D], the protein stability index runs as follows: (treatment: DMSO) 4.92 ± 0.39; (treatment: MLN4924 1 uM, 8 h) 4.93 ± 0.061.
The like results for MDTSHQPLLPAPPKTPMDGADCGI [LYSMD4] were, in that order, 5.04 ± 0.2 and 5.09 ± 0.33.
Consider MEGLEENGGVVQVGELLPCKICGR [ZC2HC1A], for which the protein stability index was 4.13 ± 0.21 (treatment: DMSO) and 4.26 ± 0.48 (treatment: MLN4924 1 uM, 8 h).
The matching figures for MERPQPDSMPQDLSEALKEATKEV [HMOX1]: 5.44 ± 0.25 and 5.43 ± 0.22.
The matching figures for MERSPDVSPGPSRSFKEELLCAVC [TRIM35]: 3.47 ± 0.18 and 3.6 ± 0.25.
The matching figures for MFQGWNCGDYFPDGITNGASWYSL [CPN1]: 2.7 ± 0.37 and 2.31 ± 0.45.
On to MFRNHLCLVFELLSYNLYDLLRNT [DYRK1B], for which the protein stability index turned out to be 2.54 ± 0.23 (treatment: DMSO) and 2.85 ± 0.72 (treatment: MLN4924 1 uM, 8 h).
Regarding MGKLLQQPNTYADFEFLAFWQTQY [PKD2L1], the protein stability index worked out at 2.21 ± 0.56 (treatment: DMSO) and 2.27 ± 0.23 (treatment: MLN4924 1 uM, 8 h).
Turning to MHPGRTTGKGPSTHTQIDQQPPRL [M1AP], the protein stability index is 4.45 ± 0.1 (treatment: DMSO) and 4.511 ± 0.026 (treatment: MLN4924 1 uM, 8 h).
Turning to MKLEKEEFVTLKAIALANSDSMHI [ESRRG], the protein stability index by setting is: (treatment: DMSO) 2.46 ± 0.22; (treatment: MLN4924 1 uM, 8 h) 2.48 ± 0.28.
The like results for MLELRHRGSCPGPREAVSPPHREG [CDS1] were, in that order, 4.26 ± 0.29 and 4.39 ± 0.29.
The matching figures for MMPLAEAGALAQGGGPSATEWACI [C6orf223]: 3.65 ± 0.34 and 3.52 ± 0.25.
The matching figures for MMRMFSENLAHHLEIDSGVITLDP [TRIM15]: 2.52 ± 0.16 and 2.69 ± 0.37.
For MMVRQMKEDAKGKSEEELAECFRI [TNNC2], for the setting “treatment: MLN4924 1 uM, 8 h”, the protein stability index is 4.3 ± 0.52.
Sequence MMYSAELWRYRTITFSGRPSRVHA [FBXO39] registered a protein stability index (treatment: DMSO) of 2.23 ± 0.091 and a protein stability index (treatment: MLN4924 1 uM, 8 h) of 2.46 ± 0.2.
Consider MNIIELEIPDQNIDVEALQVAFGS [GMCL1], for which the protein stability index stood at 2.86 ± 0.31 (treatment: DMSO) and 2.73 ± 0.072 (treatment: MLN4924 1 uM, 8 h).
With MPLREGSSFQDLLGDALAGPPRAP [HES6], the protein stability index runs as follows: (treatment: DMSO) 3.86 ± 0.34; (treatment: MLN4924 1 uM, 8 h) 4.05 ± 0.4.
The matching figures for MQAEAEAASVRMRGEAEAFAIGAR [FLOT1]: 4.62 ± 0.31 and 4.75 ± 0.31.
As to MQCPVIAVNSGGPLESIDHSVTGF [ALG2], the protein stability index is 2.83 ± 0.42 (treatment: DMSO) and 3.26 ± 0.3 (treatment: MLN4924 1 uM, 8 h).
With MSHAAEPARDGVEASAEGPRAVFV [TFE3], the protein stability index runs as follows: (treatment: DMSO) 4.62 ± 0.13; (treatment: MLN4924 1 uM, 8 h) 4.86 ± 0.09.
MSRMINKYKRRRFQKTKNLLTGET [CLPTM1]: the protein stability index is, setting by setting: (treatment: DMSO) 3.05 ± 0.32; (treatment: MLN4924 1 uM, 8 h) 3.26 ± 0.35.
As for MSYSCCLPSLGCRTSCSSRPCVPP [KRT34], the protein stability index runs as follows: (treatment: DMSO) 2.22 ± 0.17; (treatment: MLN4924 1 uM, 8 h) 2.37 ± 0.4.
With MTGAYNNFFRMFDRNTKRDVTLEA [PPP2R2C], the protein stability index (treatment: DMSO) was 3.03 ± 0.45 and the protein stability index (treatment: MLN4924 1 uM, 8 h) was determined as 3.14 ± 0.33.
MVERRGPGRPRTDGENVFTGQSKI [KMT5A]: the protein stability index (treatment: DMSO) amounted to 4.19 ± 0.36.
The sequence MYFSQEEWELLDPTQKALYNDVMQ [ZNF75A] returned a protein stability index (treatment: DMSO) of 3.67 ± 0.08 and a protein stability index (treatment: MLN4924 1 uM, 8 h) of 3.74 ± 0.33.
The like results for MYSEIQRERADIGGLMARPEYREW [FAM107A] were, in that order, 2.93 ± 0.26 and 2.92 ± 0.42.
For the sequence NARGASIFSVTALDPDSKENAQII [PCDHGA10], the protein stability index came out at 3.75 ± 0.12 (treatment: DMSO) and 3.97 ± 0.24 (treatment: MLN4924 1 uM, 8 h).
The matching figures for NDGWTPLHVAAHYGRDSFVRLLLE [ASB7]: 2.45 ± 0.18 and 2.59 ± 0.27.
Consider NDRVQTIITQLEDSRRVTKENSHQ [TRIM63], for which the protein stability index was 4.99 ± 0.23 (treatment: DMSO) and 4.92 ± 0.13 (treatment: MLN4924 1 uM, 8 h).
The matching figures for NDTAGPELPDPLGGLLDEAMLDEI [NFE2L1]: 5.22 ± 0.41 and 5.6 ± 0.13.
The matching figures for NEIQCTGNEKSIIDCKFNAESQGC [LOXL2]: 4.88 ± 0.36 and 4.79 ± 0.58.
With NELTLNEKNFFPEYNYDWWEKKPF [CHGB], the protein stability index came out at 2.73 ± 0.24 (treatment: DMSO) and 3 ± 0.35 (treatment: MLN4924 1 uM, 8 h).
The like results for NENPNNFQILLLSDPSTIEASNFQ [PNLIPRP1] were, in that order, 3.33 ± 0.36 and 3.44 ± 0.5.
As to NFLIGRQGNKKEHVIHIIDFGLAK [CSNK1G1], the protein stability index (treatment: DMSO) stood at 2.45 ± 0.66 and the protein stability index (treatment: MLN4924 1 uM, 8 h) came out at 1.89 ± 0.39.
The matching figures for NFNPLLVAGGVAVAAIALILGVAF [CEND1]: 3.24 ± 0.27 and 3.47 ± 0.22.
On to NGFGLVEDSAQNCFALIPKAPKKD [EFHC1], for which the protein stability index (treatment: DMSO) worked out at 4.75 ± 0.34 and the protein stability index (treatment: MLN4924 1 uM, 8 h) was 4.74 ± 0.13.
The matching figures for NHSLETCETTLFALRMATWNQILD [PTGFR]: 2.25 ± 0.52 and 2 ± 0.27.
The like results for NIPERASGPEGNLNQIVTEPDANF [FAM104B] were, in that order, 5.35 ± 0.15 and 5.23 ± 0.47.
As for NITRLQLETEIEALKEELLFMKKN [KRT18], the protein stability index is, setting by setting: (treatment: DMSO) 2.82 ± 0.091; (treatment: MLN4924 1 uM, 8 h) 3.05 ± 0.51.
The like results for NKFASFIDKVRFLEQQNQVLETKW [KRT71] were, in that order, 2.58 ± 0.42 and 2.49 ± 0.4.
The like results for NKPGCEHECVNMEESYYCRCHRGY [MATN2] were, in that order, 4.3 ± 0.72 and 4.24 ± 0.22.
The like results for NKYMVTDGAAYIGNFDWVGNDFTQ [PLD5] were, in that order, 2.87 ± 0.25 and 2.62 ± 0.3.
NLVLSEDRKSVKFVETRLRDLPDT [TRIM39]: the protein stability index stood at 4.31 ± 0.25 (treatment: DMSO) and 4.37 ± 0.2 (treatment: MLN4924 1 uM, 8 h).
The like results for NMLKNIELFDKLSLRFNGRVLFIK [KCTD10] were, in that order, 2.68 ± 0.48 and 2.43 ± 0.35.
Turning to NNADLCLTDDKQVLNTQGQKTSGQ [DLC1], the protein stability index reads like this: (treatment: DMSO) 5.18 ± 0.27; (treatment: MLN4924 1 uM, 8 h) 5.16 ± 0.23.
The like results for NNSWIRKNSTMVNSEDIFLLLCLK [TRIM43] were, in that order, 2.84 ± 0.42 and 2.23 ± 0.43.
The matching figures for NPPSDFSFQNMNSKRKAETWKKNR [STK38L]: 4.65 ± 0.45 and 4.42 ± 0.22.
The matching figures for NPVFQDSWDTESSGSDSGGSSSSS [FAM104A]: 5.37 ± 0.37 and 5.54 ± 0.26.
As for NQAAIMELDDTLKYSFLQFDPAPR [PPP2CA], the protein stability index is 3.25 ± 0.17 (treatment: DMSO) and 3.38 ± 0.21 (treatment: MLN4924 1 uM, 8 h).
